# Earlier results, collected in paper PMC4448172.
# Biological target: KV1.3 (UniProt P22001)
# UniProt P22001, sequence (P22001 whole entry): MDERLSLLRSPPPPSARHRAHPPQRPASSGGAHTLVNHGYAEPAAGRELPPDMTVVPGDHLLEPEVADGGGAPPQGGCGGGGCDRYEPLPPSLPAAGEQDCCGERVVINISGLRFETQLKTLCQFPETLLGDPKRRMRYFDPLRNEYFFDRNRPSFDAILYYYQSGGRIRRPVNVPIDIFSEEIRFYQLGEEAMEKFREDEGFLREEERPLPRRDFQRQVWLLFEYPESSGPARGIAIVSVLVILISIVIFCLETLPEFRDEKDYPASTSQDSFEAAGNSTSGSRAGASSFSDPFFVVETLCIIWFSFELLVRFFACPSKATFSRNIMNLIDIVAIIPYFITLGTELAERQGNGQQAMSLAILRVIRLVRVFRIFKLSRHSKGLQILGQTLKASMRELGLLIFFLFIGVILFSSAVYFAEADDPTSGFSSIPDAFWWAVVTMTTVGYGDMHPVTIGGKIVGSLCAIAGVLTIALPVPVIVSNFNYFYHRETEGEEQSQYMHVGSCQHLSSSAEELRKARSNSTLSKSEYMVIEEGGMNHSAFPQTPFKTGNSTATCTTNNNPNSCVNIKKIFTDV
substance,measurement,value
ShK (from UniProt P29187),Kd,0.011 nM
